Source: the supplement of paper PMC7877785
± gives the uncertainty stated by the source.

Assay: self-splicing fitness, log relative to wild type (ln ratio); higher = more splicing; Tetrahymena group I intron in knt gene, E. coli kanamycin selection, DiMSum; sequences stand for … in CUCUCU…GGAGGGAAAAGUUAUCAGGCAUGCACCUGGUAGCUAGUCUUUAAACCAAUAGAUUGCAUCGGUUUAAAAGGCAAGACCGUCAAAUUGCGGGAAAGGGGUCAACAGCCGUUCAGUACCAAGUCUCAGGGGAAACUUUGAGAUGGCCUUGCAAAGGGUAUGGUAAUAAGCUGACGGACAUGGUCCUAACCACGCAGCCAAGUCCUAAGUCAACAGAUCUUCUGUUGAUAUGGAUGCAGUUCACAGACUAAAUGUCGGUCGGGGAAGAUGUAUUCUUCUCAUAAGAUAUAGUCGGACCUCUCCUUAAUGGGAGCUAGCGGAUGAAGUGAUGCAACACUGGAGCCGCUGGGAACUAAUUUGUAUGCGAAAGUAUAUUGAUUAGUUUUGGAGUACUCGUGGUCG
Method in brief: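 DiMSum derived fitness as the error-weighted combination of fold changes across replicates, kanamycin versus no kanamycin, normalised to wild type. E. coli BL21(DE3) held the library, which randomised all eight P1ex-region intron nucleotides within the knt kanamycin-resistance gene on pET-22b(+). Six replicate transformations grew overnight at 37°C or 30°C on LB agar with or without 25 μg/mL kanamycin, also containing 100 μg/mL carbenicillin, 50 μM IPTG and 0.2% rhamnose, and pooled colonies were amplicon-sequenced on an Illumina HiSeq 2500.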

Sequence | self-splicing fitness (ln) (30 °C) | self-splicing fitness (ln) (37 °C)
GCCAAGCAAUAUUACGCGCG | -1.87 ± 0.13 | -0.932 ± 0.14
GGCAAGCAAUAUUACGAUCG | -0.12 ± 0.054 | -0.459 ± 0.066
GGGAAGCAAUAUUACGCACU | -1.78 ± 0.21 | -1.94 ± 0.2
GCUCAGCAAUAUUACGCAGA | -3.72 ± 0.2 | -2.88 ± 0.2
GUCAAGCAAUAUUACGUCAG | -3.55 ± 0.23 | -3.26 ± 0.37
CCAUAGCAAUAUUACGGGAC |  | -2.82 ± 0.28
GGCAAGCAAUAUUACGGAGU | -2.62 ± 0.12 | -0.542 ± 0.1
UGCUAGCAAUAUUACGAUGA | -1 ± 0.1 | -1.2 ± 0.09
ACCUAGCAAUAUUACGGCCG | -2.22 ± 0.43 | -1 ± 0.34
GCUCAGCAAUAUUACGCCGG | -2.03 ± 0.15 | -0.855 ± 0.17
CAAGAGCAAUAUUACGAGGU | -4.09 ± 0.24 | -2.71 ± 0.23
UUCAAGCAAUAUUACGCACC |  | -1.68 ± 0.49
GCUUAGCAAUAUUACGAGAU | -1.36 ± 0.14 | -1.02 ± 0.12
UAUGAGCAAUAUUACGGAAA | -1.13 ± 0.49 | 
UUGCAGCAAUAUUACGUAUU | -2.57 ± 0.14 | -1.43 ± 0.15
AGCUAGCAAUAUUACGGUGA | -1.81 ± 0.2 | -0.51 ± 0.2
UGGCAGCAAUAUUACGAACG | -0.0867 ± 0.16 | 0.145 ± 0.2
CGCGAGCAAUAUUACGCAAG | -2.92 ± 0.27 | -2.91 ± 0.43
CAGCAGCAAUAUUACGCUGU | -2.84 ± 0.22 | -2.36 ± 0.24
UAACAGCAAUAUUACGGGGC | -3.63 ± 0.19 | -2.86 ± 0.24
GUCUAGCAAUAUUACGAUAU | -0.897 ± 0.12 | -0.0984 ± 0.12
AGCGAGCAAUAUUACGUAGG | -3.4 ± 0.35 | -2.17 ± 0.22
GGCGAGCAAUAUUACGGAGU | -3.06 ± 0.4 | -1.68 ± 0.4
UGUUAGCAAUAUUACGAUUG | -0.695 ± 0.084 | -0.795 ± 0.12
AAGAAGCAAUAUUACGCUGG | -2.37 ± 0.2 | -0.515 ± 0.2

Sequence | self-splicing fitness (ln) (30 °C) | self-splicing fitness (ln) (37 °C)
GAUGAGCAAUAUUACGGCUG | -1.42 ± 0.19 | -1.36 ± 0.16
CCCGAGCAAUAUUACGCGGU | -3.37 ± 0.16 | -2.7 ± 0.17
GCAUAGCAAUAUUACGAUGU | -2.82 ± 0.13 | -2.31 ± 0.17
GAUAAGCAAUAUUACGCCGG | -1.66 ± 0.2 | -1.06 ± 0.14
AUCUAGCAAUAUUACGCUGA | -1.71 ± 0.18 | -0.501 ± 0.13
GGGCAGCAAUAUUACGGCAU | 0.216 ± 0.12 | -0.928 ± 0.12
CAAGAGCAAUAUUACGUACU | -3.74 ± 0.21 | -1.92 ± 0.2
AAUUAGCAAUAUUACGACCG | -1.2 ± 0.13 | 0.0816 ± 0.21
AACAAGCAAUAUUACGUAGU | -2.37 ± 0.11 | -1.47 ± 0.12
ACAGAGCAAUAUUACGCCCU | -3.23 ± 0.23 | -2.02 ± 0.3
UUCAAGCAAUAUUACGAGUU | -2.6 ± 0.12 | -0.389 ± 0.099
UUACAGCAAUAUUACGGUCG | 0.503 ± 0.065 | 0.571 ± 0.087
ACGCAGCAAUAUUACGCCCA | -0.672 ± 0.096 | -0.153 ± 0.12
UCACAGCAAUAUUACGUGUC | -3.55 ± 0.2 | -2.6 ± 0.2
UACAAGCAAUAUUACGGUGG | -1.65 ± 0.051 | -1.25 ± 0.064
UAGGAGCAAUAUUACGAUGU |  | -1.79 ± 0.4
GACCAGCAAUAUUACGCCAU | -3.59 ± 0.17 | -2.09 ± 0.13
GGCCAGCAAUAUUACGAGUC | -2.16 ± 0.14 | -1.24 ± 0.14
CCCUAGCAAUAUUACGAUAA | -4.04 ± 0.22 | -2.48 ± 0.22
AAAUAGCAAUAUUACGCGGC |  | -2.2 ± 0.42
AACCAGCAAUAUUACGCCGA | -0.252 ± 0.11 | -0.169 ± 0.11
UCCGAGCAAUAUUACGUUGU | -2.89 ± 0.14 | -2.96 ± 0.22
CCCAAGCAAUAUUACGACUC | -3.56 ± 0.33 | -2.1 ± 0.33
GUCGAGCAAUAUUACGUUCA | -0.837 ± 0.084 | -0.462 ± 0.086
AAGCAGCAAUAUUACGCGGU | -3.08 ± 0.17 | -2.55 ± 0.23

Sequence | self-splicing fitness (ln) (30 °C) | self-splicing fitness (ln) (37 °C)
UCUAAGCAAUAUUACGGAGU | -2.04 ± 0.13 | -0.505 ± 0.14
AACAAGCAAUAUUACGACGA | -1.15 ± 0.07 | -0.468 ± 0.074
UCAGAGCAAUAUUACGCUAU | -3.45 ± 0.48 | -2.08 ± 0.41
CCAAAGCAAUAUUACGAUUU | -3.85 ± 0.2 | -1.98 ± 0.19
GCCGAGCAAUAUUACGUCCU | -2.96 ± 0.14 | -0.795 ± 0.13
AAAUAGCAAUAUUACGACUA | -0.367 ± 0.12 | 0.06 ± 0.13
UUAUAGCAAUAUUACGUGCG | -1.06 ± 0.15 | -0.395 ± 0.17
CGAGAGCAAUAUUACGUCUU | -3.66 ± 0.43 | -1.39 ± 0.22
CAACAGCAAUAUUACGGCAU | -3.38 ± 0.12 | -1.11 ± 0.09
CACGAGCAAUAUUACGGUGC | -3.91 ± 0.37 | -2.76 ± 0.28
GUAUAGCAAUAUUACGUGUU | -3.38 ± 0.18 | -1.63 ± 0.18
CAGUAGCAAUAUUACGCCGU | -2.93 ± 0.36 | -0.37 ± 0.19
UAUCAGCAAUAUUACGUCUU | -1.65 ± 0.082 | -0.155 ± 0.091
GGAAAGCAAUAUUACGGGGA | -2.87 ± 0.15 | -2.9 ± 0.26
UGUAAGCAAUAUUACGAUCC | -1.49 ± 0.34 | -0.943 ± 0.42
UAGGAGCAAUAUUACGUACU | -2.72 ± 0.31 | -1.73 ± 0.32
GUUCAGCAAUAUUACGUUGG | -2.92 ± 0.17 | -1.62 ± 0.15
GGUCAGCAAUAUUACGCGUA | -0.325 ± 0.067 | -0.158 ± 0.07
CAACAGCAAUAUUACGGAGA | -3.07 ± 0.2 | -1.82 ± 0.2
CGCGAGCAAUAUUACGUACU | -3.32 ± 0.28 | -2.3 ± 0.31
CUGAAGCAAUAUUACGUCAU | -1.03 ± 0.093 | -0.736 ± 0.12
UCUGAGCAAUAUUACGUAUU | -4.55 ± 0.25 | -3.08 ± 0.25
CAUCAGCAAUAUUACGGAAA | -2.66 ± 0.23 | -0.167 ± 0.14
CCCCAGCAAUAUUACGUUCC | -3.87 ± 0.24 | -3.3 ± 0.3
GUAGAGCAAUAUUACGUCAA | -2.01 ± 0.14 | -2.38 ± 0.29

Sequence | self-splicing fitness (ln) (30 °C) | self-splicing fitness (ln) (37 °C)
UUCGAGCAAUAUUACGUGCA | -2.18 ± 0.19 | -1.4 ± 0.16
GCGGAGCAAUAUUACGUCAA | -2.42 ± 0.37 | 
AUCGAGCAAUAUUACGUAGG | -3.82 ± 0.39 | -2.04 ± 0.2
GUGAAGCAAUAUUACGGUCA | -0.465 ± 0.11 | 0.46 ± 0.12
CGAUAGCAAUAUUACGAGAU | -4.01 ± 0.39 | -2.73 ± 0.25
GAGCAGCAAUAUUACGUCCC | -0.684 ± 0.11 | -0.465 ± 0.19
UCAAAGCAAUAUUACGGUGG | -1.79 ± 0.058 | -1.05 ± 0.083
CCUAAGCAAUAUUACGCCUU | -3.22 ± 0.21 | -2.79 ± 0.26
UAACAGCAAUAUUACGUCCC | -2.98 ± 0.34 | -1.38 ± 0.27
GCUCAGCAAUAUUACGUGCC |  | -2.56 ± 0.23
UCCUAGCAAUAUUACGAGAC | -2.09 ± 0.33 | -1.71 ± 0.4
UGGGAGCAAUAUUACGUCUU | -3.74 ± 0.35 | -2.54 ± 0.3
AGCGAGCAAUAUUACGCGGA | -3.21 ± 0.21 | -2.45 ± 0.19
GCUCAGCAAUAUUACGGUCC | -0.681 ± 0.065 | 0.158 ± 0.087
AAUCAGCAAUAUUACGGCUA | -0.0319 ± 0.079 | 0.406 ± 0.094
GGACAGCAAUAUUACGUUGC | -4.57 ± 0.24 | -2.83 ± 0.18
GCGAAGCAAUAUUACGUGCG | -2.31 ± 0.16 | -1.5 ± 0.18
GAGUAGCAAUAUUACGUAAA |  | -0.672 ± 0.33
UGUGAGCAAUAUUACGAGGA | -2.55 ± 0.29 | -2.89 ± 0.31
UUAAAGCAAUAUUACGGAAC | -1.08 ± 0.23 | -1.69 ± 0.37
GAGUAGCAAUAUUACGGAUA | -2.11 ± 0.25 | -2.41 ± 0.25
UGUCAGCAAUAUUACGGGUC | -3.4 ± 0.14 | -2.66 ± 0.15
